Assay results: the supplement of paper PMC9170038

Test system: K4 kissing-loop RNA reporter
Test: apparent KD of K4 kissing-loop reporter; higher = weaker reporter binding
Settings: Eterna round: R107
Procedure: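 RNA-MaP round R107: designed RNA switches with theophylline, tryptophan, arginine or FMN aptamers are transcribed on-chip within common flanks. They are titrated with a labelled K4 kissing-loop RNA reporter in RNA-MaP buffer (100 mM Tris pH 7.5, 80 mM KCl, 4 mM MgCl2), without ligand or with the indicated ligand. Median apparent KD per design.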

[1] = input ligand: theophylline 20 uM
[2] = input ligand: tryptophan 2.4 mM
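Also: bound reporter read as fluorescence of individual clusters on recovered sequencing chips by microscopy, with normalized cluster intensities fitted with a binding model.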

Row | Sequence | apparent KD of K4 kissing-loop reporter (input ligand: FMN 200 uM) [nM] | apparent KD of K4 kissing-loop reporter (input ligand: arginine 13.2 mM) [nM] | apparent KD of K4 kissing-loop reporter (input ligand: none) [nM] | apparent KD of K4 kissing-loop reporter [1] [nM] | apparent KD of K4 kissing-loop reporter [2] [nM]
1 | GUGCGCGGUGCGGCCGCCACUCGGAUGCGAGUGAUGUUCGCGGGACGGACGCAAGUCCGUCAUUCGAGGACCGGGCAUGGCUGUA [#2 Same State - Tryptophan B Attempt #5 (HarryS)] | 336 | 274 | 247 | 252 | 169
2 | AAGGGCGGAACAACCUCGCCGGAUAGAGAUACCAGCCCAGCAAUGGGCCCUUGGCAGCUCACUGACCUCAGUGAUGUUGAGGUUC [Laar] | 243 | 220 | 248 | 188 | 232
3 | CCGCUACCCUCAGGAUAUUAAUAUGGAGUGAUGUUCUAUGUCCGAUGGCGGAAACGCCAUCGGGAAUAAGAAGGGAGGGUAGCGG | 189 | 261 | 482 | 313 | 329
4 | AUUUUUUUAUCAGGAUAUUAGUGUUGGUUUGUUUUGUUAGUGAUGUUGAUAUUUGUUUUAUGUAUUUAAGAAGGGAUUGAGAUGU [huupullin] | 283 | 254 | 278 | 395 | 211
5 | CCAAUCUUUUACGAUACCAGUCUAAUAUAUUUAAUCAAAACCCUCGCCGAGUGAUGUUCGGACCCUUGGCAGCGUUUGCGAGAGG [xssgstkmullin] | 656 | 365 | 543 | 452 | 424
6 | UACUUAUAGUUAUUUCUAAAUUUAUUUAGUCAGGAUAUCGAAUAGUCGAGAAGGGACAUAAUCAAGUGAUGUUUGAUUAUUCAAA [JR_SSFMNA_Sub023] | 64.8 | 96.1 | 84.8 | 88.8 | 69.6
7 | UGUACCGACUCAGGAUAUGUCGUCGAAAGACGAAAUGGAGUGAUGUUCCUUAAACUGCGAAAGCAGACAGAAGGGAGUUGGUACU [FmnBS 29 C9+G77] | 137 | 200 | 235 | 233 | 216
8 | GAUCUGAACGAAAGUUCGGAUCAGUCCGAUACCAGUAUGGAUUCAUACCCUUGGCAGCGGUUAUCUGCUAUGGAGUGAUGUUCCA [Theophylline A K4 11] | 502 | 344 | 483 | 321 | 348
9 | GGGAAGGACGGAGGAUAUGCACUGAGGAGGAGAAUAUAGUGAUGUUAUAUAAGAGGAAGGAGCUGAGUAGAAGGCCGAGGAAAGG [whbob_SS_FMNB__2th207] | 147 | 87.9 | 134 | 92.4 | 129
10 | GGCACGGUAACGCAACCGCCGUGCGCUUGGGAGGAUAUGUUUCGUGACAGAAGGCCCAGUGAUGUUGGGUCUGUUCAAAAGGACU [Ceenerus] | 355 | 124 | 105 | 122 | 88.7
11 | AACACUCAGAGAGUGAUGUUCUCUAAUAAACGAGGACCGGUACGGCCGCCACUCGAAUAAGAGUGAGUCCUACGAAAAGUAGGAC [Omei inspired 5 #OpenEnded] | 790 | 726 | 1050 | 1120 | 224
12 | AAUUUAUUAACUGAUACCAGACUUUAUUAUUUGUAAAUUACUAGUGAUGUUAGUGUUUCUGUCCCUUGGCAGCAGUAUUUAUUAA [JR_SSTheophyB_Sub024] | 78.8 | 142 | 90.3 | 134 | 70.5
13 | CUUGAUCGAGGAAGGAGCGGGCCGUCAUUGAGCGCAGUGAUGUUGCGUUCGACUAGUCGAGCCCAGGUAGGUCGCCUGGAGUAAG [Lazalaa] | 84.9 | 76.1 | 98.2 | 78.2 | 90.8
14 | GCCGUAGAUGGAAGGAGCGUGGUUAAUGUAAGUGAUGUUUACGAGGUCAACAAUUGACCGCCACAGGUAGGUCGCCAUCUACGGC | 60.4 | 57.4 | 57.2 | 53.1 | 56.4
15 | GUUGACAGACUGCAAAACUAGUCAACAGACUAGGAUAUCAGGAAACUGAGAAGGAGUCAAGUUGCAGUGAUGUUGCAAGAAUAAU [KL-SSFMN-A27] | 137 | 182 | 173 | 214 | 136
16 | GUUUGCCGGUUCCGGAGUGAUGUUCCGGAUACCAGCAACUUCCUUUGCCCUUGGCAGCCGUAGCUAUACCGGAUGGCAGCUUCAG [Arrexean] | 96.1 | 82.7 | 89.3 | 86.7 | 95.4
17 | AAAGUUGAUGAGUUGGGUAUGUGUUCCGAAGGAGCGAGAAUUAUCUCAGGUAGGUCGCGGAAGAUGAGUGAUGUUCAUCUAUAAA [KL-XArg-A8 #analogue] | 147 | 137 | 162 | 144 | 127
18 | UGUUACCAGUGAUGUUGGGAGAUGAAGAGCAAGGAUAUGUGAUAGUACAGAAGGUGCGUCGUCGUGAUUAUCACGCUCUGUGUUA [theeternabot_exclusion_KL_FMN_A_8] | 266 | 98.3 | 141 | 138 | 111
19 | GCUAGCAAUGCAGGAUAUUAAAACGAGUGAUGUUCGGUACCGAGGAUGGGAAACCAUCCUCGGUAAUAAGAAGGGCAUUGCUAGC | 210 | 182 | 194 | 211 | 172
20 | GUAUCGCUAGGAGGAUAUUUCAUAUAAUAUAUAAAUGGAUAUACGGAGUGAUGUUCCGAUUUACGGAAAGAAGGCCUAGUGAUAC [FMN B 18] | 134 | 183 | 214 | 229 | 202
21 | GUCUGUGUACUAGGAUAUGGUUGCAGACAGUCAGGUCGCCUUUUCGGCGGCCAGUGAUGUUGGUGGCCAGAAGGAGUACGUGAAG [Biririge] | 384 | 1580 | 1110 | 395 | 1480
22 | UUUGGUUUCUCGGCCGCCACUCGUUGGUUAUGGGCUUCAGGGAUAUAGUGAUGUUAUGUAUAGAAGAGGACCGGGAGAAGGUUUU [ExTryptoB.Du] | 215 | 368 | 330 | 434 | 239

Row | Sequence | apparent KD of K4 kissing-loop reporter (input ligand: FMN 200 uM) [nM] | apparent KD of K4 kissing-loop reporter (input ligand: arginine 13.2 mM) [nM] | apparent KD of K4 kissing-loop reporter (input ligand: none) [nM] | apparent KD of K4 kissing-loop reporter [1] [nM] | apparent KD of K4 kissing-loop reporter [2] [nM]
23 | CCAUUCAUUUACGAUACCAGUCUAAUAUAUUUAAUCAAAACCCUCGCCGAGUGAUGUUCGGACCCUUGGCAGCGUCUGCGAGAGG [oookmullin] | 596 | 464 | 598 | 535 | 452
24 | AAGUCAUAUAGAAGGAGCGUGUUUUUUAAUUUAUUUUCAUGAUCGAGUGAUGUUCGAUAUACACAGGUAGGUCGCUGUAUAAUAA [hbob_SS_Arginine_B_2t141] | 126 | 145 | 127 | 179 | 112
25 | AUUUAAUUAACUGAUACCAGACUUUAUGUAUUUAUUAAAACUAGUGAUGUUAGUUUAUCUGUCCCUUGGCAGCAGUUUCUACUUA [JR_Nu_ExcTheophyB_Sub021] | 93.5 | 113 | 105 | 105 | 83.4
26 | AAAGGCAUAGCCCGAGUGAUGUUCGACGAUACCAGCCUCGAUAGAGGCCCUUGGCAGCGUAAAUGAUCAUGAAGCCAAGGAAUAA [whbob_Ex_Theo_A_th68] | 340 | 303 | 391 | 816 | 422
27 | GGCAGUGAUGUUGCCAGUGGCAGAUGCGAAGGAGCGUGGUGAGACACAGGUAGGUCGCGCAUUGAAAUUGCUGUCACUAAAAUGC [#3] | 338 | 346 | 326 | 369 | 261
28 | CACGAUGAAUUCUCUAGGAGUGAUGUUUUUCGAGGACCGGUACGGCCGCCACUCGGACGACGAGCGUGGUAGCGGCCUGAAGACU [,omullin] | 743 | 225 | 468 | 680 | 380
29 | UUAGGAGUGGGAGGAUAUCCUAAUAUGGGUGAUGUUAGCGAUGUUGAAAGUGUAGUGAUGUUGUGCGGAGAAGGUCCAGUGUUGA [BDazzled - #13 - Exc. FMN B] | 196 | 126 | 178 | 222 | 161
30 | GGGUGAGCGCGAAGGAGCGCCCUGACAGGUUGCUGCCGUGGGCAGUGAUGUUGCUCAGUCCGGCAGGUAGGUCGCGUGCUCACCC | 187 | 163 | 164 | 210 | 170
31 | GCCGUACGCAUGGAUACCAGUUGCGAAGUGAUGUUUCGGGCGAUCAAAGGAUCGCCCAACAACCCUUGGCAGCCAUGCGUACGGC | 216 | 42.5 | 119 | 108 | 133
32 | AGAUUCGACACGGCCGCCACUCGUGGUGGAUUACCUAGUGUCGAAGUUGAGUGAUGUUCAAGUACGAGGACCGGGUGUUGAGUCU [KL-XTryp-B8 #analogue] | 420 | 310 | 370 | 403 | 500
33 | GCUAUGGUAGGAAGGAGCGCUUAAUUACUAAUAAGAGUGAUGUUCGAUAGUAGGUAUUUGUAGCAGGUAGGUCGCCUACUAUAGC [KL-Arg B24] | 264 | 174 | 444 | 230 | 215
34 | UGGACAUGACUCGAUAAGAGUCAAUGGGAUACCAGUGACGAAAGUCACCCUUGGCAGCUCAACUGCCAGUGAUGUUGGUAGUCCA [Astros-Elo-mod#2] | 231 | 129 | 224 | 134 | 166
35 | UGAUACCAGACUGAUACCAGCAAGUGAUGUUUGUUGAUCAAAAGCAGUCAAAGACUGCUUUGCCCUUGGCAGCAGUCUGGUAUCU [#10 K4 Theophylline B Exclusion] | 167 | 148 | 166 | 276 | 141
36 | AAUUUUAAUAAUAAAUAAUAAAUAAAUGAUACCAGUAUUUUUUUUUACCCUUGGCAGCGUAUAUAAGGGCAGUGAUGUUGUCAAA [whbob_SS_Theo_A_w58] | 205 | 136 | 153 | 196 | 169
37 | AGCCGAAAGGCGAGUGCUGUCACUCCGGAAGGAGCGGCGAAAACGCCAGGUAGGUCGCCGGAGUGAUGUUCCGGUGCAGCACUCA [Omei KL Arginine A Exc B v2] | 603 | 410 | 932 | 521 | 492
38 | AAAGGAUCAGAGAGUGAUGUUCUCUAAUAACGAGGACCGGUACGGCCGCCACUCGAAUAGAUCCAAGUCCUACGAAAAGUAGGAC [Omei inspired 8] | 274 | 217 | 316 | 308 | 210
39 | CGGAGUGAUGUUCCUUUUAUUAAUUAUUAACGAGGACCGGUACGGCCGCCACUCGAUUUAGCUUUUAUUUAAUGCUUGGAUGUUU [JR_SSTryptoA_Sub003] | 132 | 224 | 157 | 246 | 77
40 | AACGUUUUGUGAAGGAGCGCGAUAAGCAGUGAUGUUGCUUACUUACAAUUUAUAUUUUACACGCAGGUAGGUCGCACAAUACGUA [JR_SSArginiB_Sub017] | 207 | 160 | 190 | 163 | 173
41 | AAAAUUGCGGUCGAUAGAACUUUUUGCUUACGAGGACCGGUACGGCCGCCACUCGAGUCAAGUGAUGUUUGAUUUUCUAUUAUUA [JR_ExcTryptoA_Sub014] | 112 | 166 | 141 | 176 | 98.5
42 | UGUAAUUCGGCGGCCGCCACUGACCAUAGCCUUCGAUGGCCAGUGAUGUUGGCCUCUGGCUCUAACAGGACCGGGCCGAAUUGCG [Sotetiqu] | 243 | 133 | 178 | 157 | 116
43 | UAUGUACACGGGUAGUGAUACAUCGAGGAAGGAGCGUGCGCAGGCACAGGUAGGUCGCCUCAGCGCACGAGUGAUGUUCGUGGGC [Veti] | 471 | 325 | 393 | 380 | 376
44 | AAAAUAAACCAGUGAUGUUGGUGUCUAGAUACCAGCGACAAAAGUCGCCCUUGGCAGCUACGGACGUACAAAAUAAGUACGUCCU [MatMod 9 - Jieux - Same State - Theophylline A] | 468 | 353 | 472 | 481 | 405
